Reference: patent US20200277373A1, “ANTI-TREM2 ANTIBODIES AND METHODS OF USE THEREOF” (Denali Therapeutics Inc., priority 2017, published 2020)

B1: 21D11: anti-TREM2 antibody clone; VH SEQ ID NO:14, VL SEQ ID NO:25 (antibody, V domains shown)
VH: QVQLQQSGAELARPGASVKLSCKASGYTFTSYWIQWVKQRPGQGLEWIGTIYPGDGDARYTQKFKGKATLTADKSSSTTYMQLNSLASEDSAVYYCARNGITTAGYYAMDYWGQGTSVTVSS
VL: DIQMTQSPASLSVSVGETVTITCRASENIYSNLAWYQQKQGRSPQLLVYAATNLADGVPSRFSGSGSGTQYSLKINSLQSEDFGYYYCQHFWGTPYTFGGGTKVEIK
B2: RS9.F6: anti-TREM2 antibody clone; VH SEQ ID NO:24, VL SEQ ID NO:35 (antibody, V domains shown)
VH: QVQLQQPGAELVKPGASVKLSCKASGYTFTSYWMHWVKQSPGRGLEWIGRSDPTTGGTNYNEKFKTKATLTVDKPSSTAYMQLSSLTSDDSAVYYCVRTSGTGDYWGQGTSLTVSS
VL: DVVMTQTPLSLPVSLGDQASISCRSSQSLVHNNGNTFLHWYLQKPGQSPKLLIYKVSNRFSGVPDRFSGSGSGTDFTLKISRVEAEDLGVYFCSQTTHVPPTFGGGTKLEIK
B3: 3D3.A1: anti-TREM2 antibody clone; VH SEQ ID NO:18, VL SEQ ID NO:29 (antibody, V domains shown)
VH: EVQLQQSGPELVKPGASVKISCKTSGYTLSEYTMHWVIQSHGKSLEWIGGVIPNSGGTSYNQKFRDKASLTVDKSSSTAYLELRSLTSEDSAVYYCARGDDSYRRGYALDYWGQGTSVTVSS
VL: DIVMSQSPSSLAVSVGEKVTMSCKSSQSLLYSSNQKSYLAWYQQKPGQSPKLLIYWASTRESGVPDRFRGSGSGTDFTLTISSVKAEDLAVYYCQQYFSYPPTFGGGTKLEIK

Tests used:
[1] = target: T1, TREM2 (Homo sapiens, UniProt Q9NZC2); assay: PAM and single point pSyk screen, HEK293 TREM2/DAP12 cells, antibody with or without PS/PC liposomes; assay type: cell-based
T1 construct: expressed in transfected cells
T1 sequence (Q9NZC2 19-230): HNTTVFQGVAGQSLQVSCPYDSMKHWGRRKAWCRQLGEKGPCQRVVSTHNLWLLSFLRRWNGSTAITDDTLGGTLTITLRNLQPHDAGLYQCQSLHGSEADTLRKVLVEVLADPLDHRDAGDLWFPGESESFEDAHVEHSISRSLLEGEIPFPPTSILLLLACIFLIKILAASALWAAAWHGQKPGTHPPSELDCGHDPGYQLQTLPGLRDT
T1 sequence (O43914 22-113 partner): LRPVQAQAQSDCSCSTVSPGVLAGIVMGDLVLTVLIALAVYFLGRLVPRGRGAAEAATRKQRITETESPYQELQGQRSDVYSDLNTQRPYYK
Description: Two days in advance of the experiment, HEK293 cells stably overexpressing TREM2 and DAP12 were plated at 40,000 cells/well on a 96 well poly-D-lysine-coated plate. In PAM experiments utilizing lipid vesicles, the lipid vesicles (see protocol below) were then mixed with the antibodies (at a constant concentration) on a 96-well plate using a Hamilton Nimbus liquid handler at a liposome concentration of 0, liposome EC20, EC50, or EC80 (see below) in PBS. In agonist experiments alone (no liposomes), antibodies were diluted without liposomes in PBS. The cells were washed 3× with HBSS with a Biotek 405/406 plate washer, then 50 μL of the liposome/antibody mixture was added per well using a Hamilton Nimbus liquid handler. The cell plate containing the liposome/antibodies was then transferred to a 37° C. incubator for 5 minutes. The liposome/antibody solution was removed by flicking the plate, and 40 μL lysis buffer (Cell Signaling Technologies, CST) was added using the liquid handler. […]
The liposomes were diluted in HBSS, and 50 μL of liposome solution was added per well to TREM2/DAP12-overexpressing cells using the Hamilton Nimbus liquid handler as in the above protocol. […] The pSyk response was measured as described above from 10 μL lysate, and the curve fit using a non-linear regression (4 parameter dose response) fit in Prism.

[2] = target: T2, soluble TREM2 (sTREM2) (Homo sapiens, UniProt Q9NZC2); assay: Soluble TREM2 (TREM2 shedding) assay in HEK293 TREM2/DAP12 cells; assay type: cell-based; design: key to STREM2: NC = no change; −− = reduced sTREM2; ++ = increased sTREM2; conditions: change in sTREM2 levels
T2 construct: expressed in transfected cells
T2 sequence (Q9NZC2 19-230): as the sequence (Q9NZC2 19-230) above
T2 sequence (O43914 22-113 partner): as the sequence (O43914 22-113 partner) above
Description: HEK293 cells stably expressing human TREM2 and DAP12 were plated onto 96-well plates pre-coated with poly-D-lysine 4-16 hours prior to antibody treatment. Antibody supernatants or control antibodies were diluted into fresh complete media and added onto cells in triplicate. Cells were incubated with antibody containing media for 18 hours prior to removal of the cell supernatant for assay by TREM2 ELISA. Samples and standards were diluted 1:10 into blocking buffer (3% BSA/TBST) in the assay plate. Briefly, MSD small spot streptavidin plates were coated with biotinylated anti-hTREM2 polyclonal antibody (R&D Systems) overnight at 4° C. or 1 hour at room temperature. Plates were then blocked overnight at 4° C., or 1 hour at room temperature, with blocking buffer, 3% BSA/TBST. Plates were washed three times with TBST in a Biotek plate washer (used for all washes) prior to addition of diluent (blocking buffer) and denatured supernatants from cell culture. A TREM2-His protein diluted in 3% BSA/TBST was used as a standard for absolute quantification. Following 1 hour incubation at room temperature, plates were washed with TBST. The primary detection antibody, sulfo-tagged goat anti-human TREM2 (R&D Systems), diluted in 3% BSA/TBST was added and incubated for 1 hour at room temperature. After washing with TBST, MSD plates were developed using 2×MSD read buffer T, followed by detection using an MSD Sector plate reader. MSD values were converted to absolute quantities of sTREM2 by fitting a standard curve using Prism 7.0 software (Graphpad). Modulation of TREM2 shedding was represented as a ratio to cells cultured with no specific TREM2 antibody in the media.

[3] = target: T1, TREM2; assay: FACS binning on human TREM2-HEK cells (competition with R&D antibody); assay type: binding; conditions: epitope bin, 100 nM antibody
Description: HEK293 overexpressing human TREM2 (H6) were harvested by 0.05% trypsin and incubated at 37° C. incubator for 2 hours for surface TREM2 recovery. After incubation, cells were washed with 1×PBS and FACS buffer (PBS+0.5% BSA) with human Trustain FcX solution (Biolegend, Cat #422302) was added at a density of 10^6/mL. Cells were seeded at 100,000 cells per well in a 96-well round-bottom and incubated 20 minutes at room temperature. After incubation, anti-TREM2 antibodies (100 nM) were added to the cells and the cells were incubated for 45 minutes on ice. After incubation, rat anti-h/mTREM2-APC antibody (1:100, R&D, Cat # FAB17291A) was added to the cells, and the cells were incubated for 30 minutes on ice. After incubation, cells were washed with FACS buffer three times and resuspended in 10 μL FACS buffer, then analyzed by flow cytometry (BD FACSCanto II, San Jose, Calif.). 20,000 events were obtained for each sample. The ability to compete with R&D antibody was determined by MFI analysis compared to isotype or buffer control wells.

| Molecule | p-Syk induction by antibody alone (in words) ([1]; no liposomes, HEK293 TREM2/DAP12) | STREM2 [2] | Bin by FACS [3] | interaction with lipid ligand to activate p-Syk (in words) ([1]; FIG. 9A, 30 nM antibody, PS/PC liposomes, HEK cells) |
| --- | --- | --- | --- | --- |
| B1 | do not induce p-Syk | NC | 1-2 |  |
| B2 |  | NC |  |  |
| B3 |  | NC | 3 | additive with lipid TREM2 activators |
